From patent US11202830B2, “Human immunodeficiency virus therapies utilizing N332-glycan-dependent antibodies in subjects with low viral loads” (priority 2013, dated 2021)

What was measured:
SHIV-SF162P3 [1] = experiment: Antibody infusion in rhesus monkeys chronically infected with SHIV-SF162P3: plasma viral RNA; format: in vivo, rhesus monkeys (Macaca mulatta)
Description: (§1) Groups were balanced for susceptible and resistant TRIM5α alleles (Lim et al., PLoS Pathog. 6: e1000738, 2010; Letvin et al., Sci Transl Med. 3: 81 ra36, 2011). Animals infected by the intrarectal route with our rhesus-derived SHIV-SF162P3 challenge stock for 9 months prior to antibody administration were utilized for the studies. […] 3BNC117 was manufactured by Celldex Therapeutics in CHO cells and purified by chromatography and sterile filtration. All the antibody preparations were endotoxin free. Cocktails of antibodies or single antibodies were administered to monkeys once or twice by the intravenous route at a dose of 10 mg/kg for each antibody. Monkeys were bled up to three times per week for viral loads. All animal studies were approved by the appropriate Institutional Animal Care and Use Committee (IACUC).
To evaluate the therapeutic potential of broad and potent HIV-1-specific antibodies in nonhuman primates, we infused cocktails of antibodies, as well as single antibodies, in chronically SHIV-infected rhesus monkeys.
We next investigated the therapeutic efficacy of a single infusion of the cocktail of three antibodies as well as a combination of only two antibodies. […] Viral rebound occurred in the majority of animals between day 28 and day 84 (FIGS. 2A and 2B) and was associated with declines of serum antibody titers to undetectable levels (FIGS. 2E and 2F).
It is generally believed that a combination of antibodies directed against multiple epitopes will be required for virologic control (Klein et al., Nature. 492: 118-122, 2012; Poignard et al., Immunity. 10: 431-438, 1999; Trkola et al., Nat Med. 11: 615-622, 2005; Diskin et al., J Exp Med. 210:1235-1249, 2013). However, the current extraordinarily potent and broad antibodies have not previously been evaluated in nonhuman primates with intact immune systems.

SHIV-SF162P3 [2] = experiment: Sensitivity of SHIV-SF162P3 to 3BNC117; format: cell-based
[3] = system: SHIV-SF162P3 proviral DNA; experiment: Proviral DNA assay (PBMC, lymph node, gastrointestinal mucosa) after antibody infusion; format: in vivo, rhesus monkeys (Macaca mulatta); conditions: day 14 after single infusion 10 mg/kg
Description: as §1
Lymph node and gastrointestinal mucosal biopsies were processed as single cell suspensions essentially as previously described (Li et al., J Virol 85: 11007-11015, 2011). Tissue-specific proviral DNA was quantitated as previously reported (Whitney et al., J Virol. 83: 10840-10843, 2009). Total cellular DNA was isolated from 5×10^6 cells using a QIAamp DNA Blood Mini kit (Qiagen). The absolute quantification of viral DNA in each sample was determined by qPCR using primers specific to a conserved region SIVmac239. All samples were directly compared to a linear virus standard and the simultaneous amplification of a fragment of human GAPDH gene. The sensitivity of linear standards was compared against the 3D8 cell line as a reference standard as described (Whitney et al., J Virol. 83: 10840-10843, 2009). All PCR assays were performed with 100 and 200 ng of sample DNA.

clade C viruses = conditions: cited from earlier work

Row | Molecule | transient reduction of plasma viral loads (SHIV-SF162P3 [1]; single infusion 10 mg/kg) | sensitivity of the SHIV-SF162P3 challenge stock (SHIV-SF162P3 [2]; applicant's rhesus-derived challenge stock) | sensitivity of the cloned SHIV-SF162P3 pseudovirus (SHIV-SF162P3 [2]; cloned pseudovirus) | no evidence of viral rebound for (SHIV-SF162P3 [1]; baseline <3.5 log RNA copies/ml, monkeys 4905 and DN1G) | time virtually undetectable viral RNA was maintained after treatment (SHIV-SF162P3 [1]; one infusion on day 0, n=3) | viral RNA after treatment (SHIV-SF162P3 [1]; one infusion on day 0, n=3) | virologic suppression compared to 10-1074, 3BNC117, or VRC07-523 (SHIV-SF162P3 [1]; one infusion on day 0, n=3) | animals with rapid virologic control to undetectable levels by day 7 (SHIV-SF162P3 [1]; single i.v. infusion day 0, 10 mg/kg of each antibody) | outcome in one animal (monkey DN1G) (SHIV-SF162P3 [1]; single infusion 10 mg/kg) | reduction of proviral DNA in lymph nodes vs DEN3 control ([3]; P=0.05) | reduction of proviral DNA in peripheral blood vs DEN3 control ([3]; P=0.05) | reduction of proviral DNA in gastrointestinal mucosa vs DEN3 control ([3]; P=0.1) | clade C viruses covered (clade C viruses)
1 | 3BNC117: CD4bs-specific antibody; light chain SEQ ID NO: 257, heavy chain SEQ ID NO: 258 (antibody, listed as Homo sapiens) heavy: QVQLLQSGAAVTKPGASVRVSCEASGYNIRDYFIHWWRQAPGQGLQWVGWINPKTGQPNNPRQFQGRVSLTRHASWDFDTFSFYMDLKALRSDDTAVYFCARQRSDYWDFDVWGSGTQVTVSS light: DIQMTQSPSSLSASVGDTVTITCQANGYLNWYQQRRGKAPKLLIYDGSKLERGVPSRFSGRRWGQEYNLTINNLQPEDIATYFCQVYEFVVPGTRLDLKRTVA | 0.2-1.1 log | largely resistant | highly sensitive | – | – | – | – | – | – | – | – | – | –
2 | PGT121: N332 glycan-dependent antibody; CDRs SEQ ID NO: 1-6, VH SEQ ID NO: 7, VL SEQ ID NO: 8 (antibody, V domains shown) VH: QMQLQESGPGLVKPSETLSLTCSVSGASISDSYWSWIRRSPGKGLEWIGYVHKSGDTNYSPSLKSRVNLSLDTSKNQVSLSLVAATAADSGKYYCARTLHGRRIYGIVAFNEWFTYFYMDVWGNGTQVTVSS VL: SDISVAPGETARISCGEKSLGSRAVQWYQHRAGQAPSLIIYNNQDRPSGIPERFSGSPDSPFGTTATLTITSVEAGDEADYYCHIWDSRVPTKWVFGGGTTLTVL | – | – | – | over 100 days | at least 15 days | virtually undetectable levels of viral RNA within days of treatment | extremely potent virologic suppression | 4 of 4 | long-term virologic control | 4 fold | 6 fold | 4 fold | approximately 70%
